Biological target: HuM7AIQ2 heavy chain, wild-type (human myosin VIIa Met1-Arg796, motor domain plus two IQ motifs) (human) (UniProt Q13402)
Assay: co-purification on anti-FLAG resin, SDS-PAGE densitometry

Chain of UniProt Q13402 (Q13402 1-796): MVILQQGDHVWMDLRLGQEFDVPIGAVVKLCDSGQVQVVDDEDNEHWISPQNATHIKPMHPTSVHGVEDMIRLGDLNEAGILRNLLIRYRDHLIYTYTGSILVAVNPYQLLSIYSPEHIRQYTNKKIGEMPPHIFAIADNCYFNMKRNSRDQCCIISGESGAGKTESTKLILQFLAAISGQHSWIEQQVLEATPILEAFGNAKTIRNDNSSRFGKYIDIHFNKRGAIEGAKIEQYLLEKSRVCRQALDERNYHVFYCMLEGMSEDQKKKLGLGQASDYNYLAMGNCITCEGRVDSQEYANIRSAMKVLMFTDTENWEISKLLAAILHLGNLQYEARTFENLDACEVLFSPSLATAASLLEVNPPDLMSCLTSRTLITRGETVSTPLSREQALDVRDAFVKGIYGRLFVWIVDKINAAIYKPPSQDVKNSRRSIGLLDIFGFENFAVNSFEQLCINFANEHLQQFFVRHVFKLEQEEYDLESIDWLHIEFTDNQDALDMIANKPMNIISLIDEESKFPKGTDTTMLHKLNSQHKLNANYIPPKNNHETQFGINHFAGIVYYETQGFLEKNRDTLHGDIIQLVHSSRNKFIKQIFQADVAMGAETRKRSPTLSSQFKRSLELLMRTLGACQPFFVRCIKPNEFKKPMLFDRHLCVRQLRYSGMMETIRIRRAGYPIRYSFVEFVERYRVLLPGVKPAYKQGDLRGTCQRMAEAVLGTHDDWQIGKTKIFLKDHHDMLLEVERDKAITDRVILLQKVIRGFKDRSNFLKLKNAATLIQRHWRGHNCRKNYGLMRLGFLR

- stoichiometry N (calmodulin per heavy chain): 1.53
Substance: calmodulin (from UniProt P0DP23 1-149) (natural protein)

From publication PMC2821024
